From patent publication US20130177500A1 (TRUSTEES OF BOSTON UNIVERSITY, published 2013) come the findings set out here.

For assay [1], the target named is T1, human dual endothelin-1/VEGF signal peptide receptor (hDEspR), on cells and tissue (human) (UniProt B0L3A2).
T1 sequence: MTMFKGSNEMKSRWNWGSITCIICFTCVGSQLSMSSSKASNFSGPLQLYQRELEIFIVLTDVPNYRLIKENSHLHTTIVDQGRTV
Put plainly: cell-based or functional assay.

Assay [2] deals with T1, human dual endothelin-1/VEGF signal peptide receptor (hDEspR), on cells and tissue (human). The experiment in a line: isotype-antibody microbubbles on HUVECs, 800× MB:cell ratio, microscopy (negative control).
The target in assay [3] is T2, human dual endothelin-1/VEGF signal peptide receptor (hDEspR), on cells and tissue (human, UniProt B0L3A2 1-85).
T2 sequence: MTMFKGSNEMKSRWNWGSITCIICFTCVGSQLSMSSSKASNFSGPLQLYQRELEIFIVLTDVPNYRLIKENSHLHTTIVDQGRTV
Put plainly: cell-based or functional assay.

Assay [4] deals with T3, antigenic hDEspR 9-aa peptide (NH2-terminal 9 amino acids of hDEspR) (human).
T3 construct: Free, unconjugated peptide coated on ELISA wells; The KLH conjugate was used only for immunisation; also called DEspR(1-9); free antigenic peptide
T3 peptide: MTMFKGSNE
The experiment in a line: indirect ELISA on the plate-coated antigenic 9-aa hDEspR peptide; two-fold serial dilutions of hybridoma supernatant holding mAb at 1 µg/ml (1 = 1/2 ... 12 = 1/4096); OD450. In general terms: ELISA stands for enzyme-linked immunosorbent assay.

Take “endothelin-1 (from UniProt P05305 53-73) (ligand)”: in assay [1], the % CFC, BRCA1 S1497 (Kinex antibody microarray, 30 min, 10 nM ligand) was found to be 32 % CFC; the % CFC, CDK1/2 T14/Y15 (Kinex antibody microarray, 30 min, 10 nM ligand) was 53 % CFC; the % CFC, CDK1/2 Y15 (Kinex antibody microarray, 30 min, 10 nM ligand) worked out at 281 % CFC; the % CFC, ERK1/2 T202 + Y204; T185 + Y187 (Kinex antibody microarray, 30 min, 10 nM ligand) was determined as 135 % CFC. In addition, in assay [1], the % CFC, FAK Panspecific (Kinex antibody microarray, 30 min, 10 nM ligand) is 205 % CFC; the % CFC, FAK S722 (Kinex antibody microarray, 30 min, 10 nM ligand) was found to be 55 % CFC; the % CFC, FAK S732 (Kinex antibody microarray, 30 min, 10 nM ligand) came out at 62 % CFC; the % CFC, Met Panspecific (Kinex antibody microarray, 30 min, 10 nM ligand) amounted to 384 % CFC. Further, in assay [1], the % CFC, PCNA Panspecific (Kinex antibody microarray, 30 min, 10 nM ligand) is -47 % CFC; the % CFC, PKCa T638/T641 (Kinex antibody microarray, 30 min, 10 nM ligand) was determined as 137 % CFC; the % CFC, PKCe Panspecific (Kinex antibody microarray, 30 min, 10 nM ligand) is 103 % CFC; the % CFC, Raf1 S259 (Kinex antibody microarray, 30 min, 10 nM ligand) stood at 12 % CFC. In assay [1], this molecule came in with a % CFC, SHP2 S576 (Kinex antibody microarray, 30 min, 10 nM ligand) of 14 % CFC; a % CFC, STAT1 S727 (Kinex antibody microarray, 30 min, 10 nM ligand) of 86 % CFC; a % CFC, STAT1 Y701 (Kinex antibody microarray, 30 min, 10 nM ligand) of 95 % CFC; a % CFC, STAT3 S727 (Kinex antibody microarray, 30 min, 10 nM ligand) of 133 % CFC. Moreover, in assay [1], the % CFC, Shc1 or ShcA Y349, Y350 (Kinex antibody microarray, 30 min, 10 nM ligand) is 9 % CFC; the % CFC, Smad 1/5/9 S463 + S465/S465 + S467 (Kinex antibody microarray, 30 min, 10 nM ligand) was 18 % CFC; the % CFC, Src Y418 (Kinex antibody microarray, 30 min, 10 nM ligand) was -11 % CFC; the % CFC, Src Y529 (Kinex antibody microarray, 30 min, 10 nM ligand) was -20 % CFC.

For “isotype-antibody control microbubbles (MBC)”, the % of HUVECs with bound MBs in assay [2] came to 6.8%.

B1: anti-hDEspR 7C5B2 monoclonal antibody (antibody, IgG2b, V domains shown)
VH: QVQLKESGPGLVAPSQSLSITCTVSGFSLTSYDISWIRQPPGKGLEWLGVIWTGGGTNYNSAFMSRLSISKDNSKSQVFLKMNSLQTDDTAIYYCVRDRDYDGWYFDVWGAGTTVTVSS
VL: DVLMTQTPLSLPVSLGDQASISCRSSQSIVHSNGNTYLEWYLQKPGQSPKLLIYKVSNRFSGVPDRFSGSGSGTDFTLKISRVEAEDLGVYYCFQGSHVPYTFGGGTKLEIK
notes: Tested as hybridoma supernatant and as purified antibody; also called 7C5B2 antibody; 7C5B2 anti-DEspR antibody
Turning to B1, in assay [3], the “EC50, inhibition of MDA-MB-231 tumor cell invasiveness (Matrigel invasion assay)” value is 3.55 nM and the “EC50, inhibition of total tube length per well (HUVEC tube formation assay)” value came to 4.34 nM. For the same molecule, the binding result in assay [4] is on record as “binds”.
